Measured values taken from the supplement of paper PMC10567573.

B1: KCTD10 (parent)
chain: SSKEEQKLIATSNKPAVKLLYNRS
B2: PRAME (parent)
chain: KKLKIFAMPMQDIKMILKMVQLDS

Variants of: B1
Assay: protein stability index of a GFP-peptide fusion (GPS, HEK-293T) (PSI 1-6); higher = more stable
Settings: c terminus: a fixed tail appended
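Note: lentivirally expressed fusions sorted by FACS into six bins by GFP to DsRed ratio, PSI derived from sequencing read proportions per bin multiplied by bin number.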

Protein stability index: each site, then its substitutions
S24: A 3.65 | Y 3.48 | R 4.46 | L 3.4 | V 3.5 | Q 4.17 | M 3.52 | H 3.56 | F 3.52 | I 3.22 | K 4.7 | E 4.55 | D 4.45 | P 4.09 | W 2.6 | T 4.21 | N 4.2 | C 3.25 | G 4.04
Y21: L 4.06 | E 4.25 | K 4.68 | G 4.97 | A 4.33 | H 4.46 | D 4.93 | N 4.58 | S 4.33 | R 4.42 | Q 4.46 | F 3.75 | M 4.18 | I 4.13 | P 4.07 | C 4.73 | V 3.67 | W 4.05 | T 4.54
L20: R 4.46 | Q 4.28 | T 4.72 | N 4.37 | K 4.53 | W 3.35 | H 4.48 | S 4.35 | M 4.11 | V 4.09 | P 4.98 | I 4.6 | G 4.73 | E 3.98 | A 4.89 | C 3.79 | F 3.95 | D 4.53 | Y 3.82
R23: I 3.37 | L 3.03 | V 3.74 | S 4.13 | D 4.71 | K 4.29 | H 3.85 | N 4.21 | C 3.76 | F 3.29 | G 3.75 | Y 3.32 | E 4.63 | P 4.21 | Q 4.01 | A 3.99 | M 3.35 | W 3.15 | T 3.7
L19: V 4.25 | W 3.35 | Y 4.56 | T 4.95
N22: Y 2.96 | W 2.73 | C 3.7 | S 3.41 | L 3.14 | P 3.83 | F 3.17 | R 4.15 | E 4.22 | Q 4.09 | G 4 | D 4.55 | T 4.12 | H 4.01 | A 3.84 | M 2.92 | K 4.16 | V 3.54 | I 2.71

Variants of: B2
Assay: as above
Settings: c terminus: a fixed tail appended

Protein stability index of substitutions, site by site:
M8: T 2.71 | N 3.02 | L 2.91 | R 3.05 | D 3.23 | H 3.92 | S 2.46 | E 1.39 | K 2.42 | W 4.52 | C 4.6 | F 2.88 | V 3.54 | A 2.02 | P 1.72
M10: Y 2.52 | V 3.74 | R 2.7 | E 3.14 | A 1.93 | D 2.39 | G 3.5 | K 2.06 | Q 1.93 | T 2.93 | C 2.5 | H 2.12 | P 2.72 | N 2.7
K4: N 1.6 | V 3.08 | M 3.45 | H 4.52 | S 3.49 | I 3.41 | D 1.92 | P 2.85 | W 2.87 | F 2.44 | R 1.99 | G 4.41 | E 2.02 | C 2.4 | T 3.69 | A 2.11 | Q 3.25
A7: W 3.77 | C 2.66 | G 1.38 | H 2.52 | M 2.6 | R 2.61 | V 2.83 | Y 4.92 | N 2.46 | I 3.67 | P 2.85 | D 3.87 | Q 2 | K 3.26 | S 3.04
I16: F 3.41 | G 2.32 | Q 1.6 | V 2.48 | R 1.75 | D 1.73 | N 1.23 | L 1.71 | P 1.63 | K 1.69 | T 3.06 | H 2.66 | E 1.47 | S 3.21 | C 2.5
K14: H 3.17 | G 2.88 | I 3.61 | S 1.59 | R 1.65 | C 2.52 | Q 2.64 | Y 2.42 | T 1.64 | P 3.66 | V 2.44 | N 3.16 | D 3.25 | E 2.98
I5: C 2.65 | F 2.77 | M 3.17 | E 3.63 | V 3.29 | T 2.5 | Y 2.6 | D 1.82 | N 4.02 | A 3.02 | R 2.43 | G 4.35 | H 1.77 | P 2.55 | K 4.37
K2: G 2.86 | V 2.36 | R 1.59 | L 2.34 | M 1.79 | F 2.09 | Y 3.88 | T 2.9 | N 4.46 | A 2.69 | D 3.31 | H 3.33 | I 3.39 | P 2.61 | S 2.94 | Q 3.53
F6: K 2.72 | G 2.55 | R 3.11 | L 3.92 | C 3.09 | M 1.84 | D 1.26 | A 2.77 | W 4.71 | T 2.2 | E 1.52 | N 1.3 | Q 1.59
D12: F 3.57 | W 3.37 | M 4.16 | P 3.3 | C 3.07 | Y 3.17 | I 1.63 | K 2.75 | N 2.5 | L 2.29 | Q 4.16 | E 2.5 | A 2.14 | T 3.29 | R 2.17
P9: L 1.62 | W 4.76 | F 2.42 | H 2.22 | T 4.36 | V 2.94 | C 2.96 | Y 1.43 | I 2.11 | N 1.79
K1: M 2.68 | V 2.08 | T 3.61 | P 3.89 | S 3.56 | L 2.86 | H 3.51 | R 3.39 | E 2.31 | Y 1.86 | D 3.38 | F 4.97 | N 3.99 | A 3.05 | Q 2.55 | C 2.92
M15: I 2.09 | E 2.36 | F 2.51 | D 2.22 | V 2.85 | R 2.25 | C 2.02 | Q 1 | P 1.81 | H 3.17 | T 2.15 | A 2.66 | N 1.59 | G 2.96 | K 3.85
I13: K 1.44 | R 2.96 | F 2.23 | P 1.32 | V 3.55 | H 1.84 | Y 4.03 | N 1.54 | T 1.64 | D 2.66 | M 2.88 | E 1.65 | W 1.03 | S 2.45 | A 2.39 | Q 1.93
Q11: D 2.47 | V 2.19 | P 3.82 | I 2.57 | H 3.43 | G 3.84 | K 3.32 | F 3.43 | C 2.32 | A 3.71 | S 2.52 | L 2.85 | R 4.36 | Y 3.22 | N 2.79 | T 2.39 | W 3.08 | M 2.31
L3: S 2.92 | H 3.6 | M 4.28 | D 3.34 | W 2.03 | C 2.1 | N 2.82 | R 2.1 | E 1.06 | Y 4.33 | I 1.63
